Test results as given in IntAct's records for PubMed 9422512.

Biological target: wasp_human WAS (UniProt P42768)
Sequence (P42768 whole entry): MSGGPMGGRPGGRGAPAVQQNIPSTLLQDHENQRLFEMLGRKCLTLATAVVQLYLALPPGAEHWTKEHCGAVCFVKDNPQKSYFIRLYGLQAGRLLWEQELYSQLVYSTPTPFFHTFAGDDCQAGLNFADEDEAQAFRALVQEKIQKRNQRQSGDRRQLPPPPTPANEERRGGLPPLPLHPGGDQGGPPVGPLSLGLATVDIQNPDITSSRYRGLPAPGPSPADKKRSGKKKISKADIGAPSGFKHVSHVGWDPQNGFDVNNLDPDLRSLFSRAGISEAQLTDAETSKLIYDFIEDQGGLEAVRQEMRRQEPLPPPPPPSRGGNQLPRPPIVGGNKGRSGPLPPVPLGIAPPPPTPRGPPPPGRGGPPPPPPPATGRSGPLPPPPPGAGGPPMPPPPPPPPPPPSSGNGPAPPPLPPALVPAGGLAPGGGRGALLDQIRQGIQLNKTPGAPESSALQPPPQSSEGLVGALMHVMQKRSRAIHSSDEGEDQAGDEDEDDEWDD

Sequence of Cell division control protein 42 homolog (Homo sapiens), P60953 Y40C (P60953 whole entry Y40C): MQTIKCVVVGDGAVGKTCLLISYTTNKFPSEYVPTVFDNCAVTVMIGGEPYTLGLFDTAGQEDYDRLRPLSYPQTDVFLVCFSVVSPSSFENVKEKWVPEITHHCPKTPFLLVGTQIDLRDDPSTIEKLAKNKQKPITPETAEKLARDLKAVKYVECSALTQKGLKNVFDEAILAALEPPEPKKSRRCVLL

“Cell division control protein 42 homolog (Homo sapiens), P60953 Y40C” was tested, and the “effect of a mutation on the interaction” value was “disrupting interaction”.
